Reference: US20120141538A1 (UNIVERSITE PIERRE ET MARIE CURIE PARIS VI, published 2012)
Residue numbers refer to the chain shown, from its start.

B1: phage-displayed CX3CL1 mutant with N-terminal sequence AAQGMS (other, not shown: large carriers)
chain: AAQGMSKCNITCSKMTSKIPVALLIHYQQNQASCGKRAIILETRQHRLFCADPKEQWVKDAMQHLDRQAAALTRNG
notes: Selected phage clone (agonist selection); not tested singly
B2: phage-displayed CX3CL1 mutant with N-terminal sequence QPGAVS (other, not shown: large carriers)
chain: B1 chain with A1Q, A2P, Q3G, G4A, M5V
notes: as for B1
B3: phage-displayed CX3CL1 mutant with N-terminal sequence GPQAMS (other, not shown: large carriers)
chain: B1 chain with A1G, A2P, G4A
notes: as for B1
B4: phage-displayed CX3CL1 mutant with N-terminal sequence QPSALS (other, not shown: large carriers)
chain: B1 chain with A1Q, A2P, Q3S, G4A, M5L
notes: as for B1
B5: phage-displayed CX3CL1 mutant with N-terminal sequence QPVAVA (other, not shown: large carriers)
chain: B1 chain with A1Q, A2P, Q3V, G4A, M5V, S6A
notes: as for B1
B6: phage-displayed CX3CL1 mutant with N-terminal sequence NPQALS (other, not shown: large carriers)
chain: B1 chain with A1N, A2P, G4A, M5L
notes: as for B1
B7: phage-displayed CX3CL1 mutant with N-terminal sequence QLQGLA (other, not shown: large carriers)
chain: B1 chain with A1Q, A2L, M5L, S6A
notes: as for B1
B8: phage-displayed CX3CL1 mutant with N-terminal sequence QHLGLS (other, not shown: large carriers)
chain: B1 chain with A1Q, A2H, Q3L, M5L
notes: as for B1
B9: phage-displayed CX3CL1 mutant with N-terminal sequence QPVAVS (other, not shown: large carriers)
chain: B1 chain with A1Q, A2P, Q3V, G4A, M5V
notes: as for B1
B10: phage-displayed CX3CL1 mutant with N-terminal sequence QPVGLS (other, not shown: large carriers)
chain: B1 chain with A1Q, A2P, Q3V, M5L
notes: as for B1
B11: phage-displayed CX3CL1 mutant with N-terminal sequence QPVALA (other, not shown: large carriers)
chain: B1 chain with A1Q, A2P, Q3V, G4A, M5L, S6A
notes: as for B1
B12: phage-displayed CX3CL1 mutant with N-terminal sequence QFPGVS (other, not shown: large carriers)
chain: B1 chain with A1Q, A2F, Q3P, M5V
notes: as for B1
B13: phage-displayed CX3CL1 mutant with N-terminal sequence QPRALP (other, not shown: large carriers)
chain: B1 chain with A1Q, A2P, Q3R, G4A, M5L, S6P
notes: as for B1
B14: phage-displayed CX3CL1 mutant with N-terminal sequence QPHGVA (other, not shown: large carriers)
chain: B1 chain with A1Q, A2P, Q3H, M5V, S6A
notes: as for B1
B15: phage-displayed CX3CL1 mutant with N-terminal sequence QPSALT (other, not shown: large carriers)
chain: B1 chain with A1Q, A2P, Q3S, G4A, M5L, S6T
notes: as for B1
B16: phage-displayed CX3CL1 mutant with N-terminal sequence QPGGVS (other, not shown: large carriers)
chain: B1 chain with A1Q, A2P, Q3G, M5V
notes: as for B1
B17: phage-displayed CX3CL1 mutant with N-terminal sequence QPSGMS (other, not shown: large carriers)
chain: B1 chain with A1Q, A2P, Q3S
notes: as for B1
B18: phage-displayed CX3CL1 mutant with N-terminal sequence QPYGMS (other, not shown: large carriers)
chain: B1 chain with A1Q, A2P, Q3Y
notes: as for B1
B19: phage-displayed CX3CL1 mutant with N-terminal sequence QPYGVS (other, not shown: large carriers)
chain: B1 chain with A1Q, A2P, Q3Y, M5V
notes: as for B1
B20: phage-displayed CX3CL1 mutant with N-terminal sequence QPQGLA (other, not shown: large carriers)
chain: B1 chain with A1Q, A2P, M5L, S6A
notes: as for B1
B21: phage-displayed CX3CL1 mutant with N-terminal sequence QPQAVS (other, not shown: large carriers)
chain: B1 chain with A1Q, A2P, G4A, M5V
notes: as for B1
B22: phage-displayed CX3CL1 mutant with N-terminal sequence QPMGVA (other, not shown: large carriers)
chain: B1 chain with A1Q, A2P, Q3M, M5V, S6A
notes: as for B1
B23: phage-displayed CX3CL1 mutant with N-terminal sequence QLLGVS (other, not shown: large carriers)
chain: B1 chain with A1Q, A2L, Q3L, M5V
notes: as for B1
B24: phage-displayed CX3CL1 mutant with N-terminal sequence QSLGVS (other, not shown: large carriers)
chain: B1 chain with A1Q, A2S, Q3L, M5V
notes: as for B1

The binders below were run against T1, human CX3CR1 receptor (human, UniProt P49238 1-355) (assay: phage display selection on HEK-CX3CR1 cells, recovery of endocytosed phages).
T1 construct: Expressed on stably transfected HEK or CHO cells, or endogenous on human PBMC (CD8+ T cells, NK cells); also called HEK-CX3CR1 cells; CHO-CX3CR1 cells
T1 sequence: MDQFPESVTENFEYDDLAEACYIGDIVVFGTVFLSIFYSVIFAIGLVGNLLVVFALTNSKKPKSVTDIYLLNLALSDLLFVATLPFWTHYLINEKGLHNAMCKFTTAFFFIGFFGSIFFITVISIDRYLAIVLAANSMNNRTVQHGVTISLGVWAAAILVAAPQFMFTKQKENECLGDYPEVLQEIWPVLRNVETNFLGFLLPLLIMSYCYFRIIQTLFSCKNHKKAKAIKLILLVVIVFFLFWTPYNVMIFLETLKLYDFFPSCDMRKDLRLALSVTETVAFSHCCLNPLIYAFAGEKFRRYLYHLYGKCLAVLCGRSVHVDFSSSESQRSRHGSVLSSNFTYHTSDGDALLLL

Binder	binding result
B1	binds
B2	binds
B3	binds
B4	binds
B5	binds
B6	binds
B7	binds
B8	binds
B9	binds
B10	binds
B11	binds
B12	binds
B13	binds
B14	binds
B15	binds
B16	binds
B17	binds
B18	binds
B19	binds
B20	binds
B21	binds
B22	binds
B23	binds
B24	binds
